Laboratory results published in article doi:10.1101/2020.05.04.070177, “Mechanistic insights into RNA binding and RNA-regulated RIG-I ubiquitination by TRIM25” (bioRxiv, 2020).

Tests used:
TRIM25 CC = TRIM25 CC (UniProt Q14258 189-379); test: ITC; ITC and filter binding: 20 mM MES pH 6.5, 75 mM NaCl, 0.5 mM TCEP (ITC 20 C, filter binding on ice); NMR: 20 mM Na phosphate pH 6.5, 150 mM NaCl, 2 mM TCEP, 293 K; conditions: protein: recombinant; tags: His-Trx (removed); chain copies: 2; hairpin
TRIM25 PRY/SPRY = TRIM25 PRY/SPRY (UniProt Q14258 439-630); test: as above; conditions: protein: recombinant; tags: His-Trx (removed); chain copies: 3; hairpin
TRIM25 PRY/SPRY, sequence (Q14258 439-630): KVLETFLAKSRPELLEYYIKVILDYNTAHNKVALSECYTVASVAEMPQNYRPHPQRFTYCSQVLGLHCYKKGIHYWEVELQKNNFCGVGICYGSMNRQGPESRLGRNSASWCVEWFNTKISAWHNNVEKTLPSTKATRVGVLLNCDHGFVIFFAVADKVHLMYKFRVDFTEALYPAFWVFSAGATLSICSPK

[1] = biological target: T1, TRIM25 CC-PRY/SPRY triple mutant (UniProt Q14258 189-630, H505E;K508E;K602E); test: ITC; first of two fitted sites; ITC and filter binding: 20 mM MES pH 6.5, 75 mM NaCl, 0.5 mM TCEP (ITC 20 C, filter binding on ice); NMR: 20 mM Na phosphate pH 6.5, 150 mM NaCl, 2 mM TCEP, 293 K; conditions: protein: recombinant; tags: His-Trx (removed); chain copies: 2; hairpin
T1 sequence (Q14258 189-630 H505E/K508E/K602E): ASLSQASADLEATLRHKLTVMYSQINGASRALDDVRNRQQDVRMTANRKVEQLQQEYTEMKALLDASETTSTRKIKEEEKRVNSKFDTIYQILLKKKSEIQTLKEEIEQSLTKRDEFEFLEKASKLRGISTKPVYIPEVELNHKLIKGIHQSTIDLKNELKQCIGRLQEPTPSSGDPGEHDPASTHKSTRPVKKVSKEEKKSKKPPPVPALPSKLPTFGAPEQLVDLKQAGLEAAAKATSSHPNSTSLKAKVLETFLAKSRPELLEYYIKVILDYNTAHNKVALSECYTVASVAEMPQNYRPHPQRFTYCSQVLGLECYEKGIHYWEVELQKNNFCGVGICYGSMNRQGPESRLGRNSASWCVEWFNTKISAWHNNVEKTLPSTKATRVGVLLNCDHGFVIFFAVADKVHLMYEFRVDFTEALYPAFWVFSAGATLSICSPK

[2] = biological target: T2, TRIM25 CC-PRY/SPRY H505E/K508E (UniProt Q14258 189-630, H505E;K508E); test: as above; conditions: protein: recombinant; tags: His-Trx (removed); chain copies: 2; hairpin
T2 sequence (Q14258 189-630 H505E/K508E): as the sequence (Q14258 189-630 H505E/K508E/K602E) above, with E414K counted along it

[3] = biological target: T3, TRIM25 CC-PRY/SPRY K283A/K285A (UniProt Q14258 189-630, K283A;K285A); test: as above; conditions: protein: recombinant; tags: His-Trx (removed); chain copies: 2; hairpin
T3 sequence (Q14258 189-630 K283A/K285A): as the sequence (Q14258 189-630 H505E/K508E/K602E) above, with K95A, K97A, E317H, E320K, E414K counted along it

[4] = biological target: T4, TRIM25 CC-PRY/SPRY Y463S/Y476S (UniProt Q14258 189-630, Y463S;Y476S); test: as above; conditions: protein: recombinant; tags: His-Trx (removed); chain copies: 2; hairpin
T4 sequence (Q14258 189-630 Y463S/Y476S): as the sequence (Q14258 189-630 H505E/K508E/K602E) above, with Y275S, Y288S, E317H, E320K, E414K counted along it

TRIM25 CC-PRY/SPRY K602E [5] = biological target: T5, TRIM25 CC-PRY/SPRY K602E (UniProt Q14258 189-630, K602E); test: as above; conditions: protein: recombinant; tags: His-Trx (removed); chain copies: 2; hairpin
T5 sequence (Q14258 189-630 K602E): as the sequence (Q14258 189-630 H505E/K508E/K602E) above, with E317H, E320K counted along it

[6] = biological target: T6, TRIM25 CC-PRY/SPRY penta-mutant (UniProt Q14258 189-630, K283A;K285A;H505E;K508E;K602E); test: as above; conditions: protein: recombinant; tags: His-Trx (removed); chain copies: 2; hairpin
T6 sequence (Q14258 189-630 K283A/K285A/H505E/K508E/K602E): as the sequence (Q14258 189-630 H505E/K508E/K602E) above, with K95A, K97A counted along it

TRIM25 CC-PRY/SPRY [7] = biological target: T7, TRIM25 CC-PRY/SPRY (UniProt Q14258 189-630); test: filter binding; ITC and filter binding: 20 mM MES pH 6.5, 75 mM NaCl, 0.5 mM TCEP (ITC 20 C, filter binding on ice); NMR: 20 mM Na phosphate pH 6.5, 150 mM NaCl, 2 mM TCEP, 293 K; conditions: protein: recombinant; tags: His-Trx (removed); chain copies: 2; hairpin
T7 sequence (Q14258 189-630): as the sequence (Q14258 189-630 H505E/K508E/K602E) above, with E317H, E320K, E414K counted along it

TRIM25 CC-PRY/SPRY [8] = biological target: T7, TRIM25 CC-PRY/SPRY; test: ITC; highest affinity site; ITC and filter binding: 20 mM MES pH 6.5, 75 mM NaCl, 0.5 mM TCEP (ITC 20 C, filter binding on ice); NMR: 20 mM Na phosphate pH 6.5, 150 mM NaCl, 2 mM TCEP, 293 K; conditions: protein: recombinant; tags: His-Trx (removed); chain copies: 2; hairpin
[9] = biological target: T1, TRIM25 CC-PRY/SPRY triple mutant; test: ITC; second fitted site; ITC and filter binding: 20 mM MES pH 6.5, 75 mM NaCl, 0.5 mM TCEP (ITC 20 C, filter binding on ice); NMR: 20 mM Na phosphate pH 6.5, 150 mM NaCl, 2 mM TCEP, 293 K; conditions: protein: recombinant; tags: His-Trx (removed); chain copies: 2; hairpin
[10] = biological target: T2, TRIM25 CC-PRY/SPRY H505E/K508E; test: as above; conditions: protein: recombinant; tags: His-Trx (removed); chain copies: 2; hairpin
[11] = biological target: T3, TRIM25 CC-PRY/SPRY K283A/K285A; test: as above; conditions: protein: recombinant; tags: His-Trx (removed); chain copies: 2; hairpin
[12] = biological target: T4, TRIM25 CC-PRY/SPRY Y463S/Y476S; test: as above; conditions: protein: recombinant; tags: His-Trx (removed); chain copies: 2; hairpin
TRIM25 CC-PRY/SPRY K602E [13] = biological target: T5, TRIM25 CC-PRY/SPRY K602E; test: as above; conditions: protein: recombinant; tags: His-Trx (removed); chain copies: 2; hairpin
[14] = biological target: T6, TRIM25 CC-PRY/SPRY penta-mutant; test: as above; conditions: protein: recombinant; tags: His-Trx (removed); chain copies: 2; hairpin

TRIM25 CC, sequence (Q14258 189-379): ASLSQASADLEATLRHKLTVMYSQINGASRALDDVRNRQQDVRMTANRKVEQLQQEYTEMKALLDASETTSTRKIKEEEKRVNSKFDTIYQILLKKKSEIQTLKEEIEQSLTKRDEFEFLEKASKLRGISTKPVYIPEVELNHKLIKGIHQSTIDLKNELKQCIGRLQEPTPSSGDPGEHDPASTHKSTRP

B1: pre-let-7a-1@2 (structured_RNA)
RNA: GUAUAGUUUAAAAGGAGAUAACUAUAC
In the case of B1, the Kd (TRIM25 CC) is reported as 8100 ± 3100 nM, the Kd (TRIM25 PRY/SPRY) is reported as 5000 ± 1200 nM and the Kd [1] is reported as 790 ± 160 nM. For the same binder, the Kd [2] was 484 ± 48 nM, the Kd [3] was 606 ± 124 nM and the Kd [4] was 252 ± 61 nM. It also gave a Kd (TRIM25 CC-PRY/SPRY K602E [5]) of 196 ± 22 nM, a Kd [6] of 1320 ± 370 nM and a Kd (TRIM25 CC-PRY/SPRY [7]) of 10.2 ± 3.8 nM. For the same binder, the Kd (TRIM25 CC-PRY/SPRY [8]) was 72 ± 33 nM, the Kd [9] was 132000 ± 24000 nM and the Kd [10] was 4190 ± 500 nM. For the same binder, the Kd [11] was 16600 ± 2100 nM, the Kd [12] was 17000 ± 11000 nM and the Kd (TRIM25 CC-PRY/SPRY K602E [13]) was 2540 ± 120 nM. The Kd [14] was 124000 ± 28000 nM.
